The source of these data is publication PMC5600424, “An efficient method for the preparation of preferentially heterodimerized recombinant S100A8/A9 coexpressed in Escherichia coli” (Biochemistry and Biophysics Reports, 2016).

Holding throughout (assay): SEC; SEC-HPLC (COSMOSIL 5Diol-300-II), 50 mM sodium phosphate buffer pH 6.0, 1.0 mL/min, 30 ug of cation-exchange peak fraction injected; mass estimated with a gel filtration calibration kit
Series [1] deals with T1, human S100A9 (human), P06702.
T1 chain: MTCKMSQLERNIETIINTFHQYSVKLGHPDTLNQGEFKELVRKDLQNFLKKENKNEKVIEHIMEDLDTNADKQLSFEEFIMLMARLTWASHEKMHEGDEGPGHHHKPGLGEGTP
The settings on record: remark: other sources report otherwise.

Series [2] deals with the molecule itself.
A further series has as its target T2, human S100A9 (human, UniProt P06702 1-114).
T2 construct: human S100A9, UniProt P06702; codon-optimised synthetic gene in pET21a (NdeI/BamHI), expressed without any tags; also called MRP-14
T2 sequence (looked up): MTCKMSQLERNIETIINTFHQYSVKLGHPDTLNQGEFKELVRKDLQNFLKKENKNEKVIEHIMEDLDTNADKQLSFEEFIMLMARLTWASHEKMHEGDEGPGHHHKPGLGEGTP
The settings on record: both partners purified.

B1: human S100A9, P06702 1-114 (natural protein)
chain: MTCKMSQLERNIETIINTFHQYSVKLGHPDTLNQGEFKELVRKDLQNFLKKENKNEKVIEHIMEDLDTNADKQLSFEEFIMLMARLTWASHEKMHEGDEGPGHHHKPGLGEGTP
One may read the stoichiometry N as the number of molecules, sites or subunits per partner or assembly. Turning to B1, the stoichiometry N in series [1] was 2.

B2: S100A8/A9 heterodimer (complex, human)
chain 1: MLTELEKALNSIIDVYHKYSLIKGNFHAVYRDDLKKLLETECPQYIRKKGADVWFKELDINTDGAVNFQEFLILVIKMGVAAHKKSHEESHKE
chain 2: MTCKMSQLERNIETIINTFHQYSVKLGHPDTLNQGEFKELVRKDLQNFLKKENKNEKVIEHIMEDLDTNADKQLSFEEFIMLMARLTWASHEKMHEGDEGPGHHHKPGLGEGTP
notes: human S100A8, UniProt P05109; as the chain of m1; no tags; human S100A9, UniProt P06702; as the chain of m2; Heterodimer formed during coexpression; used here only for its own association to a higher complex; also called MRP-8/14; calprotectin; source: E. coli T7 Express, coexpressed from pET21-S100A8-S100A9, purified (cation-exchange chromatography, Peak 1)
As for B2, in series [2], the binding result is on record as “binds”.

B3: human S100A8 (natural protein, UniProt P05109 1-93, looked up)
chain: MLTELEKALNSIIDVYHKYSLIKGNFHAVYRDDLKKLLETECPQYIRKKGADVWFKELDINTDGAVNFQEFLILVIKMGVAAHKKSHEESHKE
notes: human S100A8, UniProt P05109; codon-optimised synthetic gene in pET21a (NdeI/BamHI), expressed without any tags; also called MRP-8
As for B3, the binding result with human S100A9 is listed as “binds”. For the same molecule, the “stoichiometry N” value in series [2] was 2.
